Data taken from patent publication US20150291677A1.

Target: Mouse FGFR4/β-klotho complex co-expressed in rat L6 myoblast cells (mouse) (UniProt Q03142)
Test: cell-based or functional assay

Mouse FGFR4/β-klotho complex co-expressed in rat L6 myoblast cells (mouse), sequence (Q03142 17-799, chain 1 of 2): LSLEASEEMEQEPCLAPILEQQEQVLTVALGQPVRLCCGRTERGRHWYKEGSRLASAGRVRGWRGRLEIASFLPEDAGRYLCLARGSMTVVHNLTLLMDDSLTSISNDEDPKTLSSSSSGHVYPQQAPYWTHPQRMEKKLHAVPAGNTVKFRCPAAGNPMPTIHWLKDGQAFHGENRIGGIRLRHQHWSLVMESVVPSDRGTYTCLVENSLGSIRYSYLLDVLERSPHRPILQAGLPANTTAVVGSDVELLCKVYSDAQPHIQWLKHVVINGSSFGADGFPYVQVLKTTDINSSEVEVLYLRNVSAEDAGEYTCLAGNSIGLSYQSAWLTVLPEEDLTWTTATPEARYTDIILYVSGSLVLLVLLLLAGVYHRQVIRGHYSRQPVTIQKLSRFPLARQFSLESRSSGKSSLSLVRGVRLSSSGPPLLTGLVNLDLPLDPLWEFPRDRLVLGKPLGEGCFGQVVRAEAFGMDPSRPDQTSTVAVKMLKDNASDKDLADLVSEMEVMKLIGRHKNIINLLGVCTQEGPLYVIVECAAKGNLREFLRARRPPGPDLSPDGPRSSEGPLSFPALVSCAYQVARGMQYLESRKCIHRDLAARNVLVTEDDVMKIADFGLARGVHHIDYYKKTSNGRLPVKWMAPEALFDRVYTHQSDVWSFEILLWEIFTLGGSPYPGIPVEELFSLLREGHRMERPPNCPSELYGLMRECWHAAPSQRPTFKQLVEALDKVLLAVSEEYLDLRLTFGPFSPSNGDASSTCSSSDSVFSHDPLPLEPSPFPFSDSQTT
Mouse FGFR4/β-klotho complex co-expressed in rat L6 myoblast cells (mouse), sequence (Q99N32 whole entry, chain 2 of 2, further chain): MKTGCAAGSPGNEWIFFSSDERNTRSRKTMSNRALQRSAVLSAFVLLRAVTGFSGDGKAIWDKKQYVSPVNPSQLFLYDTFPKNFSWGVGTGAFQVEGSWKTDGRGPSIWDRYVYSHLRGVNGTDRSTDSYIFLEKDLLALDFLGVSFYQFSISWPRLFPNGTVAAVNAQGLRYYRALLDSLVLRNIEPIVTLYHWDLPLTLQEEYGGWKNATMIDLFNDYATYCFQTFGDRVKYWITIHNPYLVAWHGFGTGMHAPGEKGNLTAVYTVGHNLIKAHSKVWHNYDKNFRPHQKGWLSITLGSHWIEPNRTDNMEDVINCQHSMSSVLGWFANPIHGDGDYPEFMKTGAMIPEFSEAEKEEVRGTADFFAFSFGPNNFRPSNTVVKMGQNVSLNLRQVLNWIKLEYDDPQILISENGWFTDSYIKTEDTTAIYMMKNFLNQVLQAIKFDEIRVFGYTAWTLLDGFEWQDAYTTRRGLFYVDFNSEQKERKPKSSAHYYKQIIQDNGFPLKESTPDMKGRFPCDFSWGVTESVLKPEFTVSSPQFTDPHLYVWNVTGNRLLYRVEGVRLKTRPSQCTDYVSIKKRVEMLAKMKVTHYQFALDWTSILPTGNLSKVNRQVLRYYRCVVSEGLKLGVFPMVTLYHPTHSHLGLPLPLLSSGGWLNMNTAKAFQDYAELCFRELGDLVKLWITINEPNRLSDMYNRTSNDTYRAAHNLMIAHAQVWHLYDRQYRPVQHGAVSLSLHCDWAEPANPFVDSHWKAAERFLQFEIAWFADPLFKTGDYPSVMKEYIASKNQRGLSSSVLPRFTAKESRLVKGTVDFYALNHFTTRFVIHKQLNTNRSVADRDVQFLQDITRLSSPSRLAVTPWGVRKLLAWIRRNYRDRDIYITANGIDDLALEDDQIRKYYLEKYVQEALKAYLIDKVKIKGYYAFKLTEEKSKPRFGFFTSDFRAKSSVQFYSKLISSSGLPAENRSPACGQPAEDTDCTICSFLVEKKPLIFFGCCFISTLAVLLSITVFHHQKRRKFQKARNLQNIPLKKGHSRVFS
FGF19 (fibroblast growth factor 19, reference or wild type sequence), sequence (O95750 23-216 limits assumed): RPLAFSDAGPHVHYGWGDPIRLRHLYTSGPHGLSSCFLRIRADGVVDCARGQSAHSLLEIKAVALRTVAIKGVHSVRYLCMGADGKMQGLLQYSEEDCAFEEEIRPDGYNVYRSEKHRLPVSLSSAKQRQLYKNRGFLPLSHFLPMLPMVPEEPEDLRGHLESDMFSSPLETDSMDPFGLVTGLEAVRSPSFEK

For “FGF19 (fibroblast growth factor 19, reference or wild type sequence) (from UniProt O95750 23-216) (ligand)”, the EC50 (pM), ELK luciferase reporter assay in L6 cells was 52.5 pM and the Emax (fold potentiation), ELK luciferase reporter assay in L6 cells (fold potentiation) was 1.82.
